The text below walks through data of article doi:10.1101/419911.

What is called Kd is the concentration at which binding is half-saturated. High values mean lower affinity, low ones higher affinity.

The target in one experiment is AP2M1 160-435 (UniProt Q96CW1). In words: isothermal titration calorimetry. The settings on record: reference: unphosphorylated peptide YMPMS; sites S616. In general terms: Isothermal titration calorimetry measures the heat released or taken up as one component is titrated into another.
The target in experiment [1] is AP2M1 (residues 160-435) (human) (UniProt Q96CW1). In words: ITC.

Sequence of UniProt Q96CW1 (Q96CW1 160-435): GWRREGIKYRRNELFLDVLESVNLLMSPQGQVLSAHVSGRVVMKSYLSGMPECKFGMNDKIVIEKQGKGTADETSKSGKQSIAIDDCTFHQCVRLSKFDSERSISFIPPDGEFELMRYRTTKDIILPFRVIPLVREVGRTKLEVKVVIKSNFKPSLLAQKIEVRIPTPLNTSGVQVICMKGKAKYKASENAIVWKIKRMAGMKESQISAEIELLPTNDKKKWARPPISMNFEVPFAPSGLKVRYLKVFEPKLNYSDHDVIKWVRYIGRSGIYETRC

“IRS1 607-620 (from UniProt P35568) YMPMpS peptide (pS-IRS1)”: in the experiment with AP2M1 160-435, the KD result is listed as “stronger; reference 2.03 µM”.

For the substance IRS1 peptide YMPMS (unphosphorylated), the Kd in experiment [1] was found to be 2.03 µM. That is a single-digit micromolar value. Same read-out and setting: in the case of “IRS1 peptide YMPMpS (phospho-S616), pS-IRS1” it was 0.28 µM.
